# Measured values published in US20260098102A1 (NATIONAL UNIVERSITY CORPORATION KOBE UNIVERSITY, published 2026).
# T1: mouse SIRPA BALB/c (mouse (BALB/c), UniProt P97797 35-513)
# T1 construct: FLAG-tagged (pFLAG V5-DEST), on 293α cells
# T1 chain: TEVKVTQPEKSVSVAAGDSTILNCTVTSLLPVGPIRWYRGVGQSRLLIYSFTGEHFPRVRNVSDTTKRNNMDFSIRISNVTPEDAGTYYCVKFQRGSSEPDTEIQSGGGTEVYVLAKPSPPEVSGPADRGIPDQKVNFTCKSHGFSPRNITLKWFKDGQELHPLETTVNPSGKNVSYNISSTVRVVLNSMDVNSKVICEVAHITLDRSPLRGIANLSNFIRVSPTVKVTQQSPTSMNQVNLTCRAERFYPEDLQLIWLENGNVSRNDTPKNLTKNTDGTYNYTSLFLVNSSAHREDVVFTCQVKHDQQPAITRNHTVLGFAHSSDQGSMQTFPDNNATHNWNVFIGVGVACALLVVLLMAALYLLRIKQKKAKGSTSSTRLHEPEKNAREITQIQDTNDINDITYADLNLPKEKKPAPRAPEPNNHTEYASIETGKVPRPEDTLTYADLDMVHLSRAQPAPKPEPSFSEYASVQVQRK
# T2: mouse SIRPA_C57BL/6 (mouse (C57BL/6), UniProt P97797 32-513)
# T2 construct: FLAG-tagged (pFLAG V5-DEST), on 293α cells
# T2 sequence: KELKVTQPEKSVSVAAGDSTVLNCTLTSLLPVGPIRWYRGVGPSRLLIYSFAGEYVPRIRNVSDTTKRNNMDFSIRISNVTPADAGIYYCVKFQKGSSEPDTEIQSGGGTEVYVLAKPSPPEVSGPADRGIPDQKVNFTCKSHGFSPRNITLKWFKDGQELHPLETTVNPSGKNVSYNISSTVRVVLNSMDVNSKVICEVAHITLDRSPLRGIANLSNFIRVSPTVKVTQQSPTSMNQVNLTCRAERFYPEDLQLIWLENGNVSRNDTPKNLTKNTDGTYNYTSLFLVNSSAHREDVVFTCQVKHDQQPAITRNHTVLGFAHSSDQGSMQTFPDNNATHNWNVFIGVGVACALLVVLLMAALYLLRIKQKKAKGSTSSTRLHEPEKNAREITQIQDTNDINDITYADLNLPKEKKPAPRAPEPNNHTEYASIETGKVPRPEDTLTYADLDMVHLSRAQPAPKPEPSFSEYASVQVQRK
# T3: mouse SIRPA_129 (mouse (129), UniProt P97797 32-513)
# T3 construct: FLAG-tagged (pFLAG V5-DEST), on 293α cells; also called 129sv
# T3 chain: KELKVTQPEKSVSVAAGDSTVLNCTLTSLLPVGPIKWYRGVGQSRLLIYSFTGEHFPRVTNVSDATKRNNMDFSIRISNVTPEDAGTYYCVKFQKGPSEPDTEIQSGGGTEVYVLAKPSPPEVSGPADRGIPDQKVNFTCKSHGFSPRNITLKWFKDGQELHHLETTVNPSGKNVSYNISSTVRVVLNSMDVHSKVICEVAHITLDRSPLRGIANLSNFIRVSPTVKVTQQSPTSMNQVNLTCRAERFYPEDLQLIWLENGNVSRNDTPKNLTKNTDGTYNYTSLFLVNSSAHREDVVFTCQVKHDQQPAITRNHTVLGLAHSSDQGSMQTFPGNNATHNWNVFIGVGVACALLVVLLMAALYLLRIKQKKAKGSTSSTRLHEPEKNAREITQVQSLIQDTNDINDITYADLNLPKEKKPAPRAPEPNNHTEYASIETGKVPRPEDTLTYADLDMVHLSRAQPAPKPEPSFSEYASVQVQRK
# T4: mouse SIRPA_NOD (mouse (NOD), UniProt P97797 32-513)
# T4 construct: FLAG-tagged (pFLAG V5-DEST), on 293α cells; also called NOD SCID
# T4 chain: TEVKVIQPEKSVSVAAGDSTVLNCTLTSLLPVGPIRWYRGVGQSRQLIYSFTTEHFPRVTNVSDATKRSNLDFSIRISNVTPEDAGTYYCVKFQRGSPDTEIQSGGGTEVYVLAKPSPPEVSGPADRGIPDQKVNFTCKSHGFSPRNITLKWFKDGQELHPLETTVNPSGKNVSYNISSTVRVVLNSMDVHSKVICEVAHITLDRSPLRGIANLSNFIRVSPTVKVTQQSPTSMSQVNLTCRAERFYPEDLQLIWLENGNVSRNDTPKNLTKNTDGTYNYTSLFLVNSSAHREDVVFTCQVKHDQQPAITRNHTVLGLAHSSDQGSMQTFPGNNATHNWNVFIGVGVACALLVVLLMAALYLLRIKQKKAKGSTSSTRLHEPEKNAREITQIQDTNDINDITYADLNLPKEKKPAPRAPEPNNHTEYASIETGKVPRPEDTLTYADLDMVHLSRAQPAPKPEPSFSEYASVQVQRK
# What was measured:
# [1] = biological target: T1, mouse SIRPA BALB/c; assay: cell-based ELISA, transfected 293α cells
# Method: (§1) After the culture supernatant of 293α cells into which the pFLAG V5-DEST-monkey SIRPA or pFLAG V5-DEST-mouse SIRPA expression vector was introduced and the pFLAG V5-DEST-introduced 293α cells prepared in Example 1)-5-2 was removed, binding to monkey or mouse SIRPA was evaluated in the same manner as for the binding activity of human SIRPA.
# [2] = biological target: T2, mouse SIRPA_C57BL/6; assay: cell-based ELISA, transfected 293α cells
# Method: as §1
# [3] = biological target: T3, mouse SIRPA_129; assay: cell-based ELISA, transfected 293α cells
# Method: as §1
# [4] = biological target: T4, mouse SIRPA_NOD; assay: cell-based ELISA, transfected 293α cells
# Method: as §1
# [5] = biological target: T5, SIRPA_V1_IgV (human, UniProt P78324 31-149); assay: SPR Biacore T200, antibody captured on anti-human IgG (Fc), SIRPA_V1_IgV as analyte (0.25 to 16 nM), 1:1 model
# T5 construct: Secreted recombinant protein from FreeStyle 293F cells
# Method: (§2) The dissociation constants were measured by a capture method comprising capturing each antibody as a ligand to an Anti-Human IgG (Fc) antibody immobilized using Human Antibody Capture Kit (GE Healthcare Bioscience Corp.) and measuring an antigen as an analyte, using Biacore T200 (GE Healthcare Bioscience Corp.). HBS-EP+ (GE Healthcare Bioscience Corp.) was used as a running buffer, and CM5 (GE Healthcare Bioscience Corp.) was used as a sensor chip. Onto the chip, 2 μg/mL of various antibodies were added at 10 μL/min for 30 seconds, then a serially diluted solution (0.25 to 16 nM) of the human SIRPA protein as an antigen was added at a flow rate of 30 μL/min for 120 seconds, and subsequently the dissociation phase for 600 seconds was monitored. As a regenerant, 3 M magnesium chloride (GE Healthcare Bioscience Corp.) was added at a flow rate of 20 μL/min for 30 seconds. For data analysis, a binding rate constant (ka), a dissociation rate constant (kd), and a dissociation constant (KD; KD=kd/ka) were calculated using a 1:1 binding model.
# [6] = biological target: T6, SIRPA_V2_IgV (human); assay: SPR Biacore T200, antibody captured on anti-human IgG (Fc), SIRPA_V2_IgV as analyte (0.25 to 16 nM), 1:1 model
# T6 construct: Secreted recombinant protein; The crystal model held residues 33 to 143 of human SIRPA Variant 2
# Method: as §2
# [7] = biological target: T7, human SIRPA_V1 protein (human, UniProt P78324 31-504); assay: blocking cell-based ELISA: peroxidase-labeled CD47-Fc (1 µg/mL) on 293α cells expressing SIRPA_V1
# T7 construct: Expressed on 293α cells from pcDNA3.2 V5-DEST or pFLAG V5-DEST (FLAG-tagged) vectors; also called human SIRPA Variant 1; hSIRPA V1
# Method: (§3) After the culture supernatant of the human SIRPA_V1 or V2 expression vector-introduced 293 cells prepared in Example 9)-1 was removed, 50 μL per well of various anti-SIRPA antibodies or various control Human IgG diluted with 5% FBS-containing PBS to a final concentration of 0 to 10,000 ng/ml was added to each of pcDNA3.2 V5-DEST-SIRPA_V1 or V2-introduced 293α cells, immediately followed by addition of 50 µL per well of peroxidase-labeled CD47-Fc prepared with 5% FBS-containing PBS at 1 μg/mL, and the mixture was allowed to stand at 4° C. for one hour. Thereafter, the SIRPA-CD47 binding inhibitory activity was evaluated in the same manner as in 1)-6-3.
# [8] = biological target: T8, human SIRPA_V2 protein (human, UniProt P78324 31-504); assay: blocking cell-based ELISA: peroxidase-labeled CD47-Fc (1 µg/mL) on 293α cells expressing SIRPA_V2
# T8 construct: Expressed on 293α cells from pcDNA3.2 V5-DEST or pFLAG V5-DEST (FLAG-tagged) vectors; also called human SIRPA Variant 2; ECD variant (full-length, amino acids 1 to 504)
# Method: as §3
# [9] = biological target: T9, human SIRPB (human, UniProt O00241 30-398); assay: flow cytometry on CHO-K1 cells expressing FLAG-tagged human SIRPB; PE anti-human IgG; MFI standardized to secondary antibody alone
# T9 construct: whole, on cells; FLAG-tagged (pFLAG V5-DEST), on CHO-K1 cells; also called SIRPβ1; signal regulatory protein β1
# Method: SIRPβ1 (signal regulatory protein β1: the amino acid sequence thereof is published as RefSeq accession number NP_006056) and SIRPγ (signal regulatory protein γ: the amino acid sequence thereof is published as RefSeq accession number NP_061026) are molecules belonging to the SIRPA family. In the present invention, “SIRPα” may be referred to as “SIRPA,” “SIRPβ1” may be referred to as […] and “SIRPγ” may be referred to as “SIRPG.” CHO-K1 cells were prepared in a 10% FBS-containing Ham's F-12K medium at 3.3×10⁵ cells/mL and cultured overnight at 37° C. under a 5% CO₂ condition. pFLAG V5-DEST-human SIRPβ, pFLAG V5-DEST-human SIRPG, or pFLAG V5-DEST was introduced into the cells using Lipofectamine LTX (Invitrogen), and cells were cultured in a 10% FBS-containing Ham's F-12K medium at 37° C. under a 5% CO₂ condition for 24 hours. The obtained introduced cells were collected and seeded on a 96-well plate. After the culture supernatant was removed, 100 μL per well of various anti-human SIRPA antibodies or various control human IgG was added to each of various gene introduced cells at a final concentration of 0 to 10,000 ng/mL, and the mixture was allowed to stand at 4° C. for 25 minutes. After the mixture was centrifuged, the supernatant was removed, and cells were washed twice with 5% FBS-containing PBS. After the mixture was centrifuged, the supernatant was removed, 50 μL per well of a 1/400 diluted solution of PE Mouse anti-Human IgG antibody (BioLegend) was added, and the mixture was allowed to stand at 4° C. for 25 minutes. After the mixture was centrifuged, the supernatant was removed, and cells were washed twice with 5% FBS-containing PBS.
# (§4) After the mixture was centrifuged, and the supernatant was removed, cells were suspended in 100 μL per well of 1× BD Stabilizing Fixative (Becton Dickinson), and the cell count was measured by flow cytometry (FACS Canto II: Becton Dickinson). For data analysis, FlowJo (TreeStar) was used. Cells were characterized by detecting forward scattered (FSC) light and side-scattered (SSC) light, and then the mean fluorescence intensity of PE was calculated. Binding of various antibodies to the family molecules was calculated by standardizing the fluorescence intensity using the mean fluorescence intensity of a sample in which the secondary antibody alone was allowed to react.
# [10] = biological target: T10, human SIRPG (human, UniProt Q9P1W8 29-387); assay: flow cytometry on CHO-K1 cells expressing FLAG-tagged human SIRPG; PE anti-human IgG; MFI standardized to secondary antibody alone
# T10 construct: whole, on cells; FLAG-tagged (pFLAG V5-DEST), on CHO-K1 cells; also called SIRPγ; signal regulatory protein γ
# Method: SIRPβ1 (signal regulatory protein β1: the amino acid sequence thereof is published as RefSeq accession number NP_006056) and SIRPγ (signal regulatory protein γ: the amino acid sequence thereof is published as RefSeq accession number NP_061026) are molecules belonging to the SIRPA family. In the present invention, “SIRPα” may be referred to as “SIRPA,” “SIRPβ1” may be referred to as […] and “SIRPγ” may be referred to as “SIRPG.” CHO-K1 cells were prepared in a 10% FBS-containing Ham's F-12K medium at 3.3×10⁵ cells/mL and cultured overnight at 37° C. under a 5% CO₂ condition. pFLAG V5-DEST-human SIRPβ, pFLAG V5-DEST-human SIRPG, or pFLAG V5-DEST was introduced into the cells using Lipofectamine LTX (Invitrogen), and cells were cultured in a 10% FBS-containing Ham's F-12K medium at 37° C. under a 5% CO₂ condition for 24 hours. The obtained introduced cells were collected and seeded on a 96-well plate. After the culture supernatant was removed, 100 μL per well of various anti-human SIRPA antibodies or various control human IgG was added to each of various gene introduced cells at a final concentration of 0 to 10,000 ng/mL, and the mixture was allowed to stand at 4° C. for 25 minutes. After the mixture was centrifuged, the supernatant was removed, and cells were washed twice with 5% FBS-containing PBS. […]
# as §4, with “For data analysis, FlowJo (TreeStar) was used.” left out
# T6 sequence (chain, as listed by the source limits assumed): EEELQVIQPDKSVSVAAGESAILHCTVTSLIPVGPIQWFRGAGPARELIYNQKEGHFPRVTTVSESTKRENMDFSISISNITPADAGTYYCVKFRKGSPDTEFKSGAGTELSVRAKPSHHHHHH
# T10 sequence (Q9P1W8 29-387): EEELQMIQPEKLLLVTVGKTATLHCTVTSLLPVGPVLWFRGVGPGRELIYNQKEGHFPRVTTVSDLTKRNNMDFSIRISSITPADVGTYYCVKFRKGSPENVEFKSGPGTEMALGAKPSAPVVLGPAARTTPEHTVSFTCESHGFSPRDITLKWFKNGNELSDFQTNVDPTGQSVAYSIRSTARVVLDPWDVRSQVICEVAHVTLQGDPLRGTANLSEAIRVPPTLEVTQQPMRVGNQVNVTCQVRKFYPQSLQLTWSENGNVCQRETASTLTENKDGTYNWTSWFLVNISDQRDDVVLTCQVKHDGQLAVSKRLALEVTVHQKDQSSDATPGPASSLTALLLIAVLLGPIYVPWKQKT
# T5 sequence (P78324 other isoform, or with tags, fused parts or gaps limits assumed): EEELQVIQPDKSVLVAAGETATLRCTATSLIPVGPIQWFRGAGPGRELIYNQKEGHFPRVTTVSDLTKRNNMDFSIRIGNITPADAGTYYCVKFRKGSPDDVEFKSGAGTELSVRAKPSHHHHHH
# T8 sequence (P78324 other isoform, or with tags, fused parts or gaps limits assumed): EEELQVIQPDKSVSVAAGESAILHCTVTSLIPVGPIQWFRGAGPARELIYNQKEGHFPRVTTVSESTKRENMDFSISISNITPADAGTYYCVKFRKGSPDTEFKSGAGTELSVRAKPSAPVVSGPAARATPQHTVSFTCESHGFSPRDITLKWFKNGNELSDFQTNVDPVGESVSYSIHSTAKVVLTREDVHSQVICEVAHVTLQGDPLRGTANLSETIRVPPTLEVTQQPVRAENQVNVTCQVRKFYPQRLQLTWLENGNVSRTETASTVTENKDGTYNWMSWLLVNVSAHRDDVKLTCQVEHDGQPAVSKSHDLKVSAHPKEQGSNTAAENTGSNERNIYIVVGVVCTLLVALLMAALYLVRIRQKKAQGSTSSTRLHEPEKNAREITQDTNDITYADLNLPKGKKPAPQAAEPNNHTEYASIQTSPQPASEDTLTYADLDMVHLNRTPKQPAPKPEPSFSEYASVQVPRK
# T7 sequence (P78324 31-504 limits assumed): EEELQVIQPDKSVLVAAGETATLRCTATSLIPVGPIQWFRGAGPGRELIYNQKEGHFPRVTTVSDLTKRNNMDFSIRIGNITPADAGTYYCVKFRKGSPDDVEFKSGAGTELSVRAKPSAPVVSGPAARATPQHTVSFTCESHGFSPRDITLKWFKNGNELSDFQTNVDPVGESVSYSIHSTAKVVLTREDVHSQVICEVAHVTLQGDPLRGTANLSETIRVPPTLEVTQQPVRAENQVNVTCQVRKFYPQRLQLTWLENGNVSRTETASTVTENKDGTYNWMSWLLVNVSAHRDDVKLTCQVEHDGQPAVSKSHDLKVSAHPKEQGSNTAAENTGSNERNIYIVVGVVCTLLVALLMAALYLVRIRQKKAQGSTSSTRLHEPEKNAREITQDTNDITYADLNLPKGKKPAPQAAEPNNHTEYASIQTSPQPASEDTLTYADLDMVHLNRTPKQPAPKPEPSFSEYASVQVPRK
# T9 sequence (O00241 30-398): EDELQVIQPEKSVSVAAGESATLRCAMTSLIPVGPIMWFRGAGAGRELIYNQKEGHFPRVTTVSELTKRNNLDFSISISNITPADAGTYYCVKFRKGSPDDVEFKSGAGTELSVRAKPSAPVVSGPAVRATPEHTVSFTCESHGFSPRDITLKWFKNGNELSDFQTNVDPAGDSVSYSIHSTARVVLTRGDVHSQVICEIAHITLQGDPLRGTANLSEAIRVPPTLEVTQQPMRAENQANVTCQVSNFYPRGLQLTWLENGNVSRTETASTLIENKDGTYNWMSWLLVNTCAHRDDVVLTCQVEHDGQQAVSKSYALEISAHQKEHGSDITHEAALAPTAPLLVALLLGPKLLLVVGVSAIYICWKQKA
Binder,binding result [1],binding result [2],binding result [3],binding result [4],Kd [5] [nM],Kd [6] [nM],IC50 [7] [µg/mL],IC50 [8] [µg/mL],EC50 (read off the curve) [9] [µg/mL],binding result [10]
"rat anti-human SIRPA monoclonal antibody D13 (antibody, V domains shown, Rat IgG1/kappa purified from hybridoma) VH: EVQLVESGGGLVQPGRSLKLSCLASGFTFSDYGMIWVRQAPGKGLEWVASISSSSSYIYYADTVKGRFTISRENAKNTLFLHMTSLRSEDTALYYCARRYYGFNYPFDYWGQGVMVTVSS VL: DTVLTQSPALAVSLGQRVTISCGASKSVRTYMHWYQQKSGQQPKLLIYSASNLEAGVPSRFSGSGSGTDFTLTIDPVEADDIANYYCQQSNEPPYTFGAGTKLELK",no binding,no binding,no binding,no binding,,,,,,
"ADU-1805 (antibody, human IgG2, kappa, V domains shown, IgG2 heavy chain; also called ADU-1805_hG2 / ADU-1805_hK) VH: EVQLVQSGAEVVKPGASVKLSCKASGSTFTSYWMHWVKQAPGQGLEWIGAIYPVNSDTTYNQKFKGKATLTVDKSASTAYMELSSLRSEDTAVYYCTRSFYYSLDAAWFVYWGQGTLVTVSS VL: DIQMTQSPSSLSASVGDRVTITCRASQDIGSRLNWLQQKPGKAPKRLIYATSSLDSGVPSRFSGSGSGTEFTLTISSLQPEDFATYYCLQYASSPFTFGGGTKVEIKR",,,,,4.39,6.32,2.97,2.12,~0.2,binds
